One test deals with T1, Biotinylated human FcRn (human, UniProt P55899 24-297; P61769 21-119, limits assumed, biotinylated (site not stated)).
T1 construct: also called Biotinlated human FcRn; human neonatal fragment crystallizable receptor (FcRn)
Description: SPR (Biacore T200), biotinylated FcRn on neutravidin, antibody as analyte, pH 5.9, steady-state fit. (Surface plasmon resonance follows binding to a sensor surface in real time, without labels.)

The target of test [1] is T2, human FcγR I CD64 (Sino Biological Inc. 10256-H08H) (human, UniProt P12314 16-288).
T2 construct: Bought reagent
T2 sequence (P12314 16-288 limits assumed): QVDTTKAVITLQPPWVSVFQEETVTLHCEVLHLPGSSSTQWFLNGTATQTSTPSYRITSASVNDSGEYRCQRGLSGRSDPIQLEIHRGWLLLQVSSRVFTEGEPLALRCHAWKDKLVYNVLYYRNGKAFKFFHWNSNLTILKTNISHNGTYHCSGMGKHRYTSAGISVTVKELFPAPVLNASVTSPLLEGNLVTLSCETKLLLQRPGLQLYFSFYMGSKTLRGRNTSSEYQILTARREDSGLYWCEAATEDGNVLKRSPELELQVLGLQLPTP
Briefly: SPR (Biacore T200), antibody captured on protein A, FcγR as analyte, multicycle, 1:1 fit.
Description: (§1) Approximately 400-600 RUs of each antibody (2 μg/mL) were captured on the protein A surface on flow cell 2, 3 and 4 by injecting at 10 μL/min for 60 s. Flow cell 1 was used as a reference surface. […] Each in-house FcγR with five concentrations were flowed as analyte using single-cycle kinetics strategy. The flow rate of FcγRs was 50 L/min with contact time of 40 sec and dissociation time of 120 sec. For the high affinity FcγRI CD64, multicycle kinetics were applied. The flow rate of the analyte was 100 L/min with contact time of 100 sec and dissociation time of 650 sec. Blank buffer control was injected using the same flow rate and contact time for each cycle. Surface regeneration was accomplished using 10 mM glycine-HCl, pH 1.5 (Cytiva©, BR100354) for 30 sec with a flow rate of 50 μL/min after each cycle. Binding constants and the maximum observed binding signal (Rmax) were determined using the Biacore™ T200 Evaluation software (version 3.0; GE Healthcare). For single-cycle kinetics, blank-subtracted sensorgrams were analyzed using steady state affinity fitting model. For multicycle kinetics, results were fit to the 1:1 Langmuir binding model.

In test [2] the target is T3, human FcγR IIB Y160 CD32bY (v5777) (human, UniProt P31994 43-217, limits assumed).
T3 construct: In-house reagent
T3 sequence (looked up): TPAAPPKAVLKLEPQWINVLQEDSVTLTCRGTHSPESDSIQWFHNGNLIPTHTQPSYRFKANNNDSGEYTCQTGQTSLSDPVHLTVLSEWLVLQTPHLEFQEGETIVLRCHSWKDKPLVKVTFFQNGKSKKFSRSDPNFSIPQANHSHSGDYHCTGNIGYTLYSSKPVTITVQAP
Briefly: SPR (Biacore T200), antibody captured on protein A, FcγR as analyte, single-cycle, steady-state fit.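 Also: five FcγR concentrations per single cycle, 40 s association then 120 s dissociation, responses corrected against a reference flow cell and blank buffer injections.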
Description: as §1

The target in test [3] is T4, human FcγR IIA H131 CD32aH (v5774) (human, UniProt P12318 34-217, limits assumed).
T4 construct: In-house reagent
T4 sequence (looked up): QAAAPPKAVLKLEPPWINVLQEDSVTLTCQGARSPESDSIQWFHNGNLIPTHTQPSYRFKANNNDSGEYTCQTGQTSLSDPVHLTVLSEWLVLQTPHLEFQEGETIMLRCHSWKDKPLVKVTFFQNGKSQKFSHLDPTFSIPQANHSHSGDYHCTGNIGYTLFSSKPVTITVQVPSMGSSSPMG
The description is as above.
Description: as §1

Test [4] addresses T5, human FcγR IIA R131 CD32aR (v5775) (human, UniProt P12318 34-217, limits assumed).
T5 construct: In-house reagent
T5 sequence (looked up): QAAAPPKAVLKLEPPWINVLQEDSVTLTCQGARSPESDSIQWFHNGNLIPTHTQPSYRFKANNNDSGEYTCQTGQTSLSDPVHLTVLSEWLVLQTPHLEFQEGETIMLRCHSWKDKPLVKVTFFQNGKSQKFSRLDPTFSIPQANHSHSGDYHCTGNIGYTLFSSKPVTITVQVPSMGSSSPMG
Described as above.
Description: as §1

Test [5] concerns the target T6, human FcγR IIIA V159 CD16aV (v5773) (human, UniProt P08637 17-208, limits assumed).
T6 construct: In-house reagent
The description is as above.
Description: as §1

In test [6] the target is T7, Construct 6 (NaPi2b del 317-333) (human, UniProt O95436 1-690).
T7 construct: Deletion construct on HEK293-6e cells; also called CL_#29919
T7 sequence: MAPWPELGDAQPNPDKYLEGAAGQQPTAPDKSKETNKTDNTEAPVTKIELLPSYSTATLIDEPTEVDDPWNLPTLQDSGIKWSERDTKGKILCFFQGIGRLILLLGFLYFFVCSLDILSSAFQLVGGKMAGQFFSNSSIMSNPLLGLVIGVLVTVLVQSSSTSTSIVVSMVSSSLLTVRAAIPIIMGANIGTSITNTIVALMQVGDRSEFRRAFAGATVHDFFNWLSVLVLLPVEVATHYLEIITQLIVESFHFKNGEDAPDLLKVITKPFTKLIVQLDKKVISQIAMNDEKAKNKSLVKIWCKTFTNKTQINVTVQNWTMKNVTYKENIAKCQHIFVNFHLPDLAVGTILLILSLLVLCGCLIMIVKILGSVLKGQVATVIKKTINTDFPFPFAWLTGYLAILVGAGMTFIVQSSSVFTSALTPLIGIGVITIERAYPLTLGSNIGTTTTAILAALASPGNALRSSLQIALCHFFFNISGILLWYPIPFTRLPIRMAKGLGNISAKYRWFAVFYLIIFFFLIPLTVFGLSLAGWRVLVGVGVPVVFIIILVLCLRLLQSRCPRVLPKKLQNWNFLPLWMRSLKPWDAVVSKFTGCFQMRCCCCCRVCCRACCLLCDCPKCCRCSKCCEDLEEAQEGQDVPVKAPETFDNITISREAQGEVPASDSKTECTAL
Description: flow cytometry, HEK293-6e cells transfected with Construct 6. On the technique in general: Flow cytometry measures light scatter and fluorescence of single cells or particles in a stream.
Description: (§2) Following transfection, cells were seeded at 50,000 cells/well in conical-bottom 96-well plates and treated with a serial dilution of test antibody for 24 hours at 4° C. to prevent internalization. Cells were treated with final concentrations of all humanized antibodies of 200, 20, or 2 nM. Cells were treated with final concentrations of the reference anti-NaPi2a rabbit antibody of 50, 5, or 0.5 nM. […] Following incubation and washing, fluorescence was detected by flow cytometry on a BD LSRFortessa™ Cell Analyzer (BD Biosciences, Franklin Lake, NJ) with 1,000 minimum events collected per well. […] Background-subtracted AF647 Mean Fluorescence Intensity (MFI) values were calculated by subtracting the average MFI of three technical replicates of unstained (no primary antibody) cells.

Test [7] concerns the target T8, Construct 7 (NaPi2b del 317-326) (human, UniProt O95436 1-690).
T8 construct: Deletion construct on HEK293-6e cells; also called CL_#29921
T8 sequence: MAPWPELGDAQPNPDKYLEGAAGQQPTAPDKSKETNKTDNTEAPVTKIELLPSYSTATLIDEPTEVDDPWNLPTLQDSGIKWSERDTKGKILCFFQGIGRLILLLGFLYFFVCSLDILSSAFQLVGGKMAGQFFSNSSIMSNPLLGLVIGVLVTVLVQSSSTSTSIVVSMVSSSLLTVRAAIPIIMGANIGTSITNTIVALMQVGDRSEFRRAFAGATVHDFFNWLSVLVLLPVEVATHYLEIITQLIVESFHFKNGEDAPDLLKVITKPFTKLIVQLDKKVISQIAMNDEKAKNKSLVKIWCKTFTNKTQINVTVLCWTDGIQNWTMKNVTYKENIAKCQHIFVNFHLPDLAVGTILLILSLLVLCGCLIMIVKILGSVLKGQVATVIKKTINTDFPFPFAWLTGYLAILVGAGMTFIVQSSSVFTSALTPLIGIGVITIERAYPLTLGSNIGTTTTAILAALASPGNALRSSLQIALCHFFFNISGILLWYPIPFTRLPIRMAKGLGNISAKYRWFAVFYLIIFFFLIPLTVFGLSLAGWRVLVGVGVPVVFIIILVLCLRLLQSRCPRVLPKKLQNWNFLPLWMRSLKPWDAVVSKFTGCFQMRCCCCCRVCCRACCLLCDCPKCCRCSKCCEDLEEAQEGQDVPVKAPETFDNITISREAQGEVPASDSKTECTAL
Briefly: flow cytometry, HEK293-6e cells transfected with Construct 7.
Description: as §2

The target of test [8] is T9, human sodium-dependent phosphate transporter 2B (NaPi2b) (human, UniProt O95436 1-690).
T9 construct: UniProt ID is given as 095436 [sic]; also called hNaPi2b; Hu NaPi2b
T9 sequence: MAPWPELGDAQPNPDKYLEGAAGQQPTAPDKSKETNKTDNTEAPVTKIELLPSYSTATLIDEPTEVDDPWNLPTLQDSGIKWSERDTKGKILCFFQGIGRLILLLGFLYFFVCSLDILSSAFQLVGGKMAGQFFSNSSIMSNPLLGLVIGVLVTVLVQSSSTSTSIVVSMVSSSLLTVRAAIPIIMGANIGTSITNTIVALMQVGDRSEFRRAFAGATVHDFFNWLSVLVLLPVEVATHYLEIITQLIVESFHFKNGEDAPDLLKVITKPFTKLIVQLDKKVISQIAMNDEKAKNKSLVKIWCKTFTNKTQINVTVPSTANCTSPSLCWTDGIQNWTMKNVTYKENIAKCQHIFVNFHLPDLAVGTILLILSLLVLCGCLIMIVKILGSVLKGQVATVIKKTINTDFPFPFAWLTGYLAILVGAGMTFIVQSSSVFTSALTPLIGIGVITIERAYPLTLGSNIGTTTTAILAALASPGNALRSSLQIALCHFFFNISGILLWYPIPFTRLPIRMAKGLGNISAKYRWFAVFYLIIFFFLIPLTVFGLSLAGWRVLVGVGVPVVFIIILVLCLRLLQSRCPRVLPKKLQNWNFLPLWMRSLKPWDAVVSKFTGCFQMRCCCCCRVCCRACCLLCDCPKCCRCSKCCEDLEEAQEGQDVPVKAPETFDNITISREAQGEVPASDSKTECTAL
Briefly: flow cytometry on IGROV-1 cells (endogenous NaPi2b), 24 h at 4 C, anti-human IgG Fc AF647, APC-A GeoMean.

T6 sequence (P08637 17-208 F176V limits assumed): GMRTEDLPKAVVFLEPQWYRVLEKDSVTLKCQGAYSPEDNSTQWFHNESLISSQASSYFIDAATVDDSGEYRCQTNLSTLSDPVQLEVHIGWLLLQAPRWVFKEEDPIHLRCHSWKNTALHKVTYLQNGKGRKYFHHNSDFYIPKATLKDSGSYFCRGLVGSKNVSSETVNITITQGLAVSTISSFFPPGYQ
T1 sequence (P55899 24-297 limits assumed, chain 1 of 2): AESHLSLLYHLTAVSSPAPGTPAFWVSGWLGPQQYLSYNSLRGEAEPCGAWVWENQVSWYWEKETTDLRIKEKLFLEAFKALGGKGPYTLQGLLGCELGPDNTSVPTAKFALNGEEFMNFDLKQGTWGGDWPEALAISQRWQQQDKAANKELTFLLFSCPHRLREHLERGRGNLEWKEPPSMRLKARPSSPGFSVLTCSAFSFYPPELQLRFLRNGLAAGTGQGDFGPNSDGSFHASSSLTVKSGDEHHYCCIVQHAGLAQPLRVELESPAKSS
T1 sequence (P61769 21-119 limits assumed, chain 2 of 2): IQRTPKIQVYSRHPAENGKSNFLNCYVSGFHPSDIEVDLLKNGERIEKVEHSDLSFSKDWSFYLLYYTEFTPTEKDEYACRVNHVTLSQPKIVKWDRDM
Description for Biotinylated human FcRn: Neutravidin with concentration of g/mL was injected into flow cell 1 to 4 targeting at 2000 RU with a flow rate of 10 L/min for immobilization. The reaction was inactivated with 1 M Ethanolamine-HCl pH8.5 (Cytiva©, BR100050), following with a buffer wash step using the running buffer, PBS-T (PBS+0.05% (v/v) Tween 20, pH5.9). […] The test articles with different dilutions were flowed as analyte using single-cycle kinetics strategy. The flow rate of analyte was 50 μL/min with contact time of 45 sec and dissociation time of 180 sec. Surface regeneration was accomplished using PBS-T (PBS+0.05% (v/v) Tween 20, pH7.4) for 120 sec with a flow rate of 30 μL/min after each cycle. Binding constants were determined with the Biacore™ T200 Evaluation software (version 3.0; GE Healthcare). Blank-subtracted sensorgrams were analyzed using steady state affinity fitting model. Binding percentage was calculated from observed Rmax and theoretical Rmax (Rmax/Rmax_ₜₕₑₒ), based on human FcRn capture density.

B1: v40554 (LALA) anti-NaPi2b antibody (antibody)
chain 1: not shown
chain 2: DVQMTQSPSSLSASVGDRVTITCRASQDVYSYLNWYQQKPGKAVKLLIYYTSRLQSGVPSRFSGSGSGTDYTLTISSLQPEDFATYYCQQYNIFPWTFGQGTKLEIKRTVAAPSVFIFPPSDEQLKSGTASVVCLLNNFYPREAKVQWKVDNALQSGNSQESVTEQDSKDSTYSLSSTLTLSKADYEKHKVYACEVTHQGLSSPVTKSFNRGEC
Consider B1, for which the Binding percentage with Biotinylated human FcRn was found to be 27%; in test [1], 6.4%; in [2], 53.2%; in [3], 63.8%; in [4], 58%; in test [5], 41.5%. Moreover, the dissociation constant (Kd) with Biotinylated human FcRn came to 0.132 µM; in test [1], 0.00379 µM; in test [2], 48.7 µM; in [3], 29.2 µM; in test [4], 29.3 µM; in test [5] it was 4.02 µM.

B2: v21995 (palivizumab, anti-RSV negative control) (antibody, human IgG1, kappa, V domains shown)
VH: QVTLRESGPALVKPTQTLTLTCTFSGFSLSTSGMSVGWIRQPPGKALEWLADIWWDDKKDYNPSLKSRLTISKDTSKNQVVLKVTNMDPADTATYYCARSMITNWYFDVWGAGTTVTVSS
VL: DIQMTQSPSTLSASVGDRVTITCKSQLSVGYMHWYQQKPGKAPKLLIYDTSKLASGVPSRFSGSGSGTEFTLTISSLQPDDFATYYCFQGSGYPFTFGGGTKLEIKR
As to B2, the binding result in test [6], in [7] and in test [8] was “no binding (tested: 200 nM)” each time.

As usually defined, the Kd is the free concentration of one partner at which half of the binding sites on the other are occupied at equilibrium, for simple one-to-one binding. Read a high Kd as weaker binding.

The values above are taken from patent publication US20260232827A1 (Zymeworks, published 2026).
